In US20260061042A1, “POLYNUCLEOTIDE COMPOSITIONS AND USES THEREOF” (Pfizer Inc., priority 2024, published 2026):

B1: BMD562_PapG-DSF K172A_DAF-GPI: monovalent PapG modRNA LNP; RNA construct SEQ ID NO: 63 (nucleic acid)
chain: AGGAAAUAAGAGAAAGAGGAUAAGACGACUAAGGAGACAUACAGAAUAAGAGGCAGCCACCAUGGAGACCGACACCCUCCUGCUGUGGGUGCUGUUACUGUGGGUGCCCGGUAGCACCGGCUGGAACAACAUCGUGUUCUACAGCCUGGGCAACGUGAACAGCUACCAAGGCGGCAACGUGGUGAUCACACAGAGACCUCAGUUCAUCACAAGCUGGAGACCCGGCAUCGCCACCGUGACCUGGAAUCAGUGCAACGGCCCCGAGUUCGCCGACGGCAGCUGGGCCUACUACAGAGAGUACAUCGCCUGGGUGGUGUUCCCCAAGAAGGUGAUGACCAAGAACGGCUACCCCCUGUUCAUCGAGGUGCACAACAAGGGCAGCUGGAGCGAGGAGAACACCGGCGACAGCGACAGCUACUUCUUCCUGAAGGGCUACAAGUGGGACGAGAGAGCCUUCGACGCCGGCAACCUGUGUCAGAAGCCGGGGGAGACGACCCGGCUUACAGAAAAGUUCAACGACAUCAUCUUCAAGGUGGCCCUGCCCGCCGACCUGCCCCUGGGCGACUACAGCGUGACCAUCCCCUACACAAGCGGCAUUCAGAGACACUUCGCUAGCUACCUGGGCGCUAGAUUCGCCAUCCCCUACAACGUGGCCAAGACCCUGCCUAGAGAGAACGAGAUGCUGUUCCUGUUCAAGAACAUCGGCGGCUGCAGACCUAGCGCUCAGAGCCUGGAGAUCAAGCACGGCGACCUGAGCAUCAACAGCGCCAACAACCACUACGCCGCUCAGACCCUGAGCGUGAGCUGCGACGUGCCCGCCAACAUCAGAUUCAUGCUGCUGAGAUCAACCACCCCCACCUACAGCCACGGCAAGAAGUUCAGCGUGGGCCUGGGCCACGGCUGGGACAGCAUCGUGAGCGUGAACGGCGUGGACACGGGCGAGACCACUAUGCGUUGGUACAAGGCCGGCACACAGAGCCUGACCAUCGGCAGCAGACUGUACGGCGAGAGCAGCAAGAUUCAACCGGGCGUGCUUAGUGGUUCCGCCACCCUGCUGAUGAUUCUGCCCGGCGGAAGCAGCGGCGGCGCCGACGUGCAGAUCAACAUCAGAGGCAACGUGUACAUACCCCCUUCGAGCGGAGGCGGCGGAUCGUCCGGCUCCGGGAGCAGCAGCGGCACCACACGGCUGCUGAGCGGCCACACCUGCUUCACCCUGACCGGCCUGCUGGGCACCCUGGUGACCAUGGGCCUGCUGACCUGAUGAGCUCGCUUUCUUGCUGUCCAAUUUCUAUUAAAGGUUCCUUUGUUCCCUAAGUCCAACUACUAAACUGGGGGAUAUUAUGAAGGGCCUUGAGCAUCUGGAUUCUGCCUAAUAAAAAACAUUUAUUUUCAUUGCAAAAAAAAAAAAAAAAAAAAAAAAAAAAAAAAAAAAAAAAAAAAAAAAAAAAAAAAAAAAAAAAAAAAAAAAAAAAAAAAAA
modifications: modRNA in LNP
B2: BMD576_PapG-DSF K172A_DAF-GPI: monovalent PapG modRNA LNP; RNA construct SEQ ID NO: 64 (nucleic acid)
chain: AGGAGGACUGGUCGAACCUGCAUAGUGAUCAUAAGGUCAGCAUAGCCACCAUGGAGACCGACACCCUCCUGCUGUGGGUGCUGUUACUGUGGGUGCCCGGUAGCACCGGCUGGAACAACAUCGUGUUCUACAGCCUGGGCAACGUGAACAGCUACCAAGGCGGCAACGUGGUGAUCACACAGAGACCUCAGUUCAUCACAAGCUGGAGACCCGGCAUCGCCACCGUGACCUGGAAUCAGUGCAACGGCCCCGAGUUCGCCGACGGCAGCUGGGCCUACUACAGAGAGUACAUCGCCUGGGUGGUGUUCCCCAAGAAGGUGAUGACCAAGAACGGCUACCCCCUGUUCAUCGAGGUGCACAACAAGGGCAGCUGGAGCGAGGAGAACACCGGCGACAGCGACAGCUACUUCUUCCUGAAGGGCUACAAGUGGGACGAGAGAGCCUUCGACGCCGGCAACCUGUGUCAGAAGCCGGGGGAGACGACCCGGCUUACAGAAAAGUUCAACGACAUCAUCUUCAAGGUGGCCCUGCCCGCCGACCUGCCCCUGGGCGACUACAGCGUGACCAUCCCCUACACAAGCGGCAUUCAGAGACACUUCGCUAGCUACCUGGGCGCUAGAUUCGCCAUCCCCUACAACGUGGCCAAGACCCUGCCUAGAGAGAACGAGAUGCUGUUCCUGUUCAAGAACAUCGGCGGCUGCAGACCUAGCGCUCAGAGCCUGGAGAUCAAGCACGGCGACCUGAGCAUCAACAGCGCCAACAACCACUACGCCGCUCAGACCCUGAGCGUGAGCUGCGACGUGCCCGCCAACAUCAGAUUCAUGCUGCUGAGAUCAACCACCCCCACCUACAGCCACGGCAAGAAGUUCAGCGUGGGCCUGGGCCACGGCUGGGACAGCAUCGUGAGCGUGAACGGCGUGGACACGGGCGAGACCACUAUGCGUUGGUACAAGGCCGGCACACAGAGCCUGACCAUCGGCAGCAGACUGUACGGCGAGAGCAGCAAGAUUCAACCGGGCGUGCUUAGUGGUUCCGCCACCCUGCUGAUGAUUCUGCCCGGCGGAAGCAGCGGCGGCGCCGACGUGCAGAUCAACAUCAGAGGCAACGUGUACAUACCCCCUUCGAGCGGAGGCGGCGGAUCGUCCGGCUCCGGGAGCAGCAGCGGCACCACACGGCUGCUGAGCGGCCACACCUGCUUCACCCUGACCGGCCUGCUGGGCACCCUGGUGACCAUGGGCCUGCUGACCUGAUGAGCUCGCUUUCUUGCUGUCCAAUUUCUAUUAAAGGUUCCUUUGUUCCCUAAGUCCAACUACUAAACUGGGGGAUAUUAUGAAGGGCCUUGAGCAUCUGGAUUCUGCCUAAUAAAAAACAUUUAUUUUCAUUGCAAAAAAAAAAAAAAAAAAAAAAAAAAAAAAAAAAAAAAAAAAAAAAAAAAAAAAAAAAAAAAAAAAAAAAAAAAAAAAAAAA
modifications: modRNA in LNP

Tested on: E. coli strain CFT073 expressing the fimbrial adhesin PapG
Assay: PapG hemagglutination inhibition (HAI) assay on sera of mice immunized with PapG modRNA LNPs
Format: in vivo
Conditions: 50 μl IM; for Step Titer GMT (HAI): weeks 0, 4, bleed week 6, GMT of individual titers; for Step Titer Pool (HAI): weeks 0, 4, bleed week 6, serum pool
From the text: Escherichia coli to the uroepithelium of human kidney. The PapG lectin binds to the globoside (GbO4) glycolipid, which is enriched in urinary tract tissue and consists of the tetrasacharide GalNAcβ1-3Galα1-4Galβ1-4Glc linked to ceramide. Here we present the use of a hemagglutination inhibition assay (HAI) to determine vaccine functional responses to protein subunit PapG or mRNA-expressed PapG antigens. In this assay the agglutination of human red blood cells (hRBCs) expressing GbO4 is caused by live E. coli CFT073 bacteria expressing PapG. The HAI assay measures the ability of PapG-elicited antibodies to prevent hRBC agglutination, exemplifying inhibition of the key bacterial adherence mechanism leading to clinical pyelonephritis. The assay was used to characterize the functional activity of PapG monoclonal antibodies (mAbs) raised against a PapG lectin domain subunit antigen. PapG HAI data from a mouse immunogenicity study are described that evaluated various 5 monovalent PapG modRNA LNPs and a PapG subunit comparator.
In this mouse study immunogenicity of different PapG mRNA constructs were evaluated. […]
iii. PapG Hemagglutination Inhibition Assay (HAI) 1. Preparation of Single Use Frozen E. coli CFT073 Banks Frozen bacterial stocks for use in the PapG HAI are stored at a concentration of ˜15 OD/mL. For stock preparation, take 6 ×100 μL of frozen parental strain CFT073 glycerol stock to seed six overnight cultures with ˜85 mL Luria's Broth (LB) each in 250 mL vented flasks. Flasks are shaken at 200 rpm and 37° C. overnight. On the same day, prepare 100 mL LB media with 30% glycerol and 0.4% sucrose by mixing […] 80% Glycerol with 0.8 mL 50% Sucrose in 64 mL LB and pre-chill at 4° C. After ˜16 h growth, determine the OD600 nm of each flask with the SpectraMax M5e plate reader by adding 100 μL culture to 900 μL LB (1:10 dilution). After reading the OD600, harvest cells by pelleting in a centrifuge at 4,000g, 4° C., for 30 minute. Determine the total OD of each of the six flasks, by multiplying the volume by OD/mL of each flask and divide by 15 OD to give the appropriate pellet resuspension volume. Discard supernatants and resuspend all pellets in the pre-chilled LB cryopreservant containing 30% glycerol and 0.4% sucrose, with a final volume as calculated above. Pool all resuspended pellets and mix gently, then aliquot into 1 mL/cryotube, and freeze at −70° C.
2. Preparing 10% hRBC Working Solution From Stock
Gently mix human red blood cells (hRBC) bottle (Rockland) by rocking ˜20×times, pipet out 10 mL of the hRBCs into a 15 ml conical tube. Centrifuge at 2,000 rpm(˜990×g) for 10 minutes and 4° C. Aspirate and discard the supernatant, then resuspend the pellet with 9 mL 4° C. PBS. The packed hRBCs in 15 mL conical tube should constitute roughly 1 mL of this total volume. Store these 10% hRBCs at 4° C. until use. […]
iv. PapG Hemagglutination Inhibition (HAI) Assay
The PapG hemagglutination inhibition (HAI) assay uses human red blood cells (hRBCs), which naturally express the PapG ligand GbO4 (globotetraosyl ceramide) on the cell surface, and the E. coli strain CFT073 expressing the fimbrial adhesin PapG. Upon mixing bacteria with hRBCs, […] cells remain suspended (presenting as a cloudy well), while no binding results in the red blood cells falling out of solution towards the center of the well (observed as pellet).
The total final well volume is 100 μL, with serum dilutions comprising 25 μL of this volume, strain CFT073 cells in […] volume, and hRBCs in a 50 μL volume. The assay plate is a V-bottom plate to which 25 μL 4° C. PBS is initially added to all wells. The positive control wells receive an additional 25 μL 4° C. PBS. The no-serum negative control consists of E. coli CFT073 cells plus hRBCs only (resulting agglutinated well appears cloudy). To accommodate pre-diluted sera transferred from the serum Master Dilution plate (MDP) an extra 5 μL 4° C. PBS is added to wells in Row A of the assay plate (columns 1 to 12). […]

Molecule | Step Titer GMT (HAI) (1 μg) | Step Titer Pool (HAI) (1 μg) | Step Titer GMT (HAI) (0.2 μg) | Step Titer Pool (HAI) (0.2 μg) | Step Titer GMT (HAI) (5 μg) | Step Titer Pool (HAI) (5 μg)
B1 | 65,875 | 81,000 |  |  |  | 
B2 | 69,595 | 27,000 | 50,054 | 54,000 | 141,214 | 81,000
